According to paper PMC10397247:

Key:
Experiment in all cases: two-hybrid library CCmax;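 also: natural log of median RNA to DNA barcode read ratio; higher means stronger binding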
4H1597-AA = target: T1, 4H1597-AA; conditions: mean of both orientations
T1 chain: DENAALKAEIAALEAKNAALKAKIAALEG

4H94-AA = target: T2, 4H94-AA; conditions: mean of both orientations
T2 chain: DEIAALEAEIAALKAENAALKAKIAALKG

4H3120-AA = target: T3, 4H3120-AA; conditions: mean of both orientations
T3 chain: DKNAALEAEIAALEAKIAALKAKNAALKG

4H3130-AA = target: T4, 4H3130-AA; conditions: mean of both orientations
T4 chain: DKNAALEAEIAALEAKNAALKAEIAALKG

4H850-AA = target: T5, 4H850-AA; conditions: mean of both orientations
T5 chain: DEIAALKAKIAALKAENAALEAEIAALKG

4H1842-AA = target: T6, 4H1842-AA; conditions: mean of both orientations
T6 chain: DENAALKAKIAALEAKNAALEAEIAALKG

4H458-AA = target: T7, 4H458-AA; conditions: mean of both orientations
T7 chain: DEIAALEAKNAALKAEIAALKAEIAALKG

4H536-AA = target: T8, 4H536-AA; conditions: mean of both orientations
T8 chain: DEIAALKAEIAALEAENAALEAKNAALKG

4H310-AA = target: T9, 4H310-AA; conditions: mean of both orientations
T9 chain: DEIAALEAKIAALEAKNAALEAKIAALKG

4H909-AA = target: T10, 4H909-AA; conditions: mean of both orientations
T10 chain: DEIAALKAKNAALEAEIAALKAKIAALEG

4H1478-AA = target: T11, 4H1478-AA
T11 chain: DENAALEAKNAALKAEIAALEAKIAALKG

4H171-AA = target: T12, 4H171-AA; conditions: mean of both orientations
T12 chain: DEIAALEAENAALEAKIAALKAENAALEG

4H3009-AA = target: T13, 4H3009-AA; conditions: mean of both orientations
T13 chain: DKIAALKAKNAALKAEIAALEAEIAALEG

4H3865-AA = target: T14, 4H3865-AA; conditions: mean of both orientations
T14 chain: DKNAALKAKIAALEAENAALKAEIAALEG

4H570-AA = target: T15, 4H570-AA; conditions: mean of both orientations
T15 chain: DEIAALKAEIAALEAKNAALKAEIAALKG

4H2330-AA = target: T16, 4H2330-AA; conditions: mean of both orientations
T16 chain: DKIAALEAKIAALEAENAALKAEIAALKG

4H1877-AA = target: T17, 4H1877-AA; conditions: mean of both orientations
T17 chain: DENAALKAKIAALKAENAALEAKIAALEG

4H2865-AA = target: T18, 4H2865-AA; conditions: mean of both orientations
T18 chain: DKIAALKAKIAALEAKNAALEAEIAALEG

4H2109-AA = target: T19, 4H2109-AA; conditions: mean of both orientations
T19 chain: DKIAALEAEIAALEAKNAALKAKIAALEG

4H1579-AA = target: T20, 4H1579-AA; conditions: mean of both orientations
T20 chain: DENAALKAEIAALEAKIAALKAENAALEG

4H3381-AA = target: T21, 4H3381-AA; conditions: mean of both orientations
T21 chain: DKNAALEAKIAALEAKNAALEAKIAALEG

4H3395-AA = target: T22, 4H3395-AA; conditions: mean of both orientations
T22 chain: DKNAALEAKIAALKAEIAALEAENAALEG

4H3165-AA = target: T23, 4H3165-AA; conditions: mean of both orientations
T23 chain: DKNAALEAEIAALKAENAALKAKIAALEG

4H2473-AA = target: T24, 4H2473-AA; conditions: mean of both orientations
T24 chain: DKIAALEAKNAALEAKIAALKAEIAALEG

4H2438-AA = target: T25, 4H2438-AA; conditions: mean of both orientations
T25 chain: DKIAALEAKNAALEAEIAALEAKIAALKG

4H629-AA = target: T26, 4H629-AA; conditions: mean of both orientations
T26 chain: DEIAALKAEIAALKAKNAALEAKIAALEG

4H485-AA = target: T27, 4H485-AA; conditions: mean of both orientations
T27 chain: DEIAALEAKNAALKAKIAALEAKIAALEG

4H2253-AA = target: T28, 4H2253-AA; conditions: mean of both orientations
T28 chain: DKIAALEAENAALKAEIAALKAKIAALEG

4H1864-AA = target: T29, 4H1864-AA; conditions: mean of both orientations
T29 chain: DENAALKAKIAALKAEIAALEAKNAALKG

4H2725-AA = target: T30, 4H2725-AA; conditions: mean of both orientations
T30 chain: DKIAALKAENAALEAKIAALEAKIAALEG

4H2162-AA = target: T31, 4H2162-AA; conditions: mean of both orientations
T31 chain: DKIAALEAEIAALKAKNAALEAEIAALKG

4H891-AA = target: T32, 4H891-AA; conditions: mean of both orientations
T32 chain: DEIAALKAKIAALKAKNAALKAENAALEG

4H3697-AA = target: T33, 4H3697-AA; conditions: mean of both orientations
T33 chain: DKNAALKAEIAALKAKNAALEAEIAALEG

4H797-AA = target: T34, 4H797-AA; conditions: mean of both orientations
T34 chain: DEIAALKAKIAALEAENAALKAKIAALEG

4H3410-AA = target: T35, 4H3410-AA; conditions: mean of both orientations
T35 chain: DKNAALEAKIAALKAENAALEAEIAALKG

4H710-AA = target: T36, 4H710-AA
T36 chain: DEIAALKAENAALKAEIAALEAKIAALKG

4H2649-AA = target: T37, 4H2649-AA; conditions: mean of both orientations
T37 chain: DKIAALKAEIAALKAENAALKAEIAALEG

4H3016-AA = target: T38, 4H3016-AA; conditions: mean of both orientations
T38 chain: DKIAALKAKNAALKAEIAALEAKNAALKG

4H2698-AA = target: T39, 4H2698-AA; conditions: mean of both orientations
T39 chain: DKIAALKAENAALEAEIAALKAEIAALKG

4H745-AA = target: T40, 4H745-AA; conditions: mean of both orientations
T40 chain: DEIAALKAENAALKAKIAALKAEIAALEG

4H2274-AA = target: T41, 4H2274-AA; conditions: mean of both orientations
T41 chain: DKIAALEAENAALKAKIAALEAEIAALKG

4H174-AA = target: T42, 4H174-AA; conditions: mean of both orientations
T42 chain: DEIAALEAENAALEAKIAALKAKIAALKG

4H930-AA = target: T43, 4H930-AA; conditions: mean of both orientations
T43 chain: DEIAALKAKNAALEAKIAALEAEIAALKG

4H3590-AA = target: T44, 4H3590-AA; conditions: mean of both orientations
T44 chain: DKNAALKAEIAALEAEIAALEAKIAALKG

4H2389-AA = target: T45, 4H2389-AA; conditions: mean of both orientations
T45 chain: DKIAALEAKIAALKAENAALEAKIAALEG

4H3753-AA = target: T46, 4H3753-AA; conditions: mean of both orientations
T46 chain: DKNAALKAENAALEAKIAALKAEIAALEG

4H1626-AA = target: T47, 4H1626-AA; conditions: mean of both orientations
T47 chain: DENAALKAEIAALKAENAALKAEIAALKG

DENAALEAKNAALKAEIAALEAKIAALKG [4H1478-AA]
interaction score (4H1597-AA): -0.494
interaction score (4H94-AA): -1.45
interaction score (4H3120-AA): -0.624
interaction score (4H3130-AA): -0.211
interaction score (4H850-AA): 0.0104
interaction score (4H1842-AA): -1.06
interaction score (4H458-AA): -0.241
interaction score (4H536-AA): -1.16
interaction score (4H310-AA): -0.927
interaction score (4H909-AA): -0.497
interaction score (4H1478-AA): 0.0991
interaction score (4H171-AA): 0.9
interaction score (4H3009-AA): 0.472
interaction score (4H3865-AA): -1.31
interaction score (4H570-AA): -1.51
interaction score (4H2330-AA): -1.56
interaction score (4H1877-AA): -0.558
interaction score (4H2865-AA): -1.39
interaction score (4H2109-AA): -0.882
interaction score (4H1579-AA): -0.103
interaction score (4H3381-AA): -1.47
interaction score (4H3395-AA): 1.1
interaction score (4H3165-AA): -1.68
interaction score (4H2473-AA): 2.04
interaction score (4H2438-AA): -0.717
interaction score (4H629-AA): -1.23
interaction score (4H485-AA): -0.796
interaction score (4H2253-AA): -0.889
interaction score (4H1864-AA): 1.68
interaction score (4H2725-AA): 1.78
interaction score (4H2162-AA): -1.13
interaction score (4H891-AA): -1.45
interaction score (4H3697-AA): -1.54
interaction score (4H797-AA): -1.28
interaction score (4H3410-AA): -1
interaction score (4H710-AA): -0.15
interaction score (4H2649-AA): -1.48
interaction score (4H3016-AA): -1.29
interaction score (4H2698-AA): 1.64
interaction score (4H745-AA): 2.14
interaction score (4H2274-AA): -0.761
interaction score (4H174-AA): 1.4
interaction score (4H930-AA): -0.754
interaction score (4H3590-AA): 0.946
interaction score (4H2389-AA): 0.0289
interaction score (4H3753-AA): 2.25
interaction score (4H1626-AA): -1.52
